Target: T1, AGT-LM, minor allele of the human alanine glyoxylate aminotransferase (Homo sapiens, AGXT minor allele (AGT-LM), UniProt P21549, strain)
T1 construct: alanine:glyoxylate aminotransferase, human, minor allele (AGT-LM)
Assay: SPR; Biacore T200; His-tagged NB-AGT captured on a Ni-loaded NTA chip and covalently immobilised (EDC/NHS); AGT-LM injected at 0.74-60 nM in HBS-EP+ (10 mM HEPES, 150 mM NaCl, 3 mM EDTA, 0.05% Tween 20), single cycle kinetics, 120 s pulses, 70 uL/min; 25 °C; 1:1 interaction model
Conditions: both partners purified

B1: NB-AGT-6 (VHH)
VHH: QVQLVESGGGSVQTGGSLRLACVASGFTSDHYSIGWFRQAPGKEREGVSCIGMHDGSTKYAESVKGRFTISSDNDKNTVYLQMNSLKPEDTAVYYCAAGPLVLLDSDTYQSWGEGTQVTVSS
notes: also in the AlphaFold 2 model files of Data S1; Selected by phage display from an immunised llama; Covalently immobilised on the NTA chip after capture by its His tag; also called NB-6; nanobody 6 raised against AGT-LM; source: E. coli BL21 (DE3), pET-24(+), purified (IMAC, SuperDex 75 SEC); not shown: His6, C-terminal, kept
Kd: ~0.005 nM

B2: NB-AGT-1 (VHH)
VHH: QVQLVESGGGLVQAGDSLRLSCAASGLAFSTYGMGWFRQAPGKEREFVADINWSGSSTYVADSVKGRFTISRDNAKNTVYLQMNRLKPEDTAVYSCAAAPGGGLRAGPSRRYEYWGQGTQVTVSS
notes: also in the AlphaFold 2 model files of Data S1; Selected by phage display from an immunised llama; Covalently immobilised on the NTA chip after capture by its His tag; also called NB-1; nanobody 1 raised against AGT-LM; source: E. coli BL21 (DE3), pET-24(+), purified (IMAC, SuperDex 75 SEC); not shown: His6, C-terminal, kept
Kd: 3.8 nM

From PMC11891404, “Thermodynamic versus kinetic basis for the high conformational stability of nanobodies for therapeutic applications” (Febs Letters, 2024)
